Source: patent US20230406921A1 (MABWELL SHANGHAI BIOSCIENCE, published 2023)

molecular target: T1, recombinant antigen of the extracellular region of CD47 (Sino Biological, Cat: 12283-H08H) (human, UniProt Q08722 19-139); experiment: Fortebio BLI, recombinant CD47 extracellular region
T1 construct: extracellular domain; also called recombinant CD47 extracellular region; CD47 recombinant protein
T1 sequence (Q08722 19-139 limits assumed): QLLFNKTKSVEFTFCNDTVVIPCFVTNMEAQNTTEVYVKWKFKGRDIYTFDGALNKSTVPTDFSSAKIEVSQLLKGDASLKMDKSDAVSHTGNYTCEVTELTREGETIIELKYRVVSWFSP

Binder | Kd | koff | kon
140Hm2/hz140L (Table 2) (antibody, V domains shown, also called hz140-Hm/hz140L) VH: QVQLVQSGAEVKKPGASVKVSCKASGYKFTNYAMHWVRQAPGQRLEWMGYINPYNDGIKYNEKFTGRVTITRDTSASTAYMELSSLRSEDTAVYYCAREGDFYANYGRLGFAYWGQGTLVTVSS VL: DIQMTQSPSSLSASVGDRVTITCRASQDITNYLNWYQQKPGKAPKLLIYYTSRLHSGVPSRFSGSGSGTDYTFTISSLQPEDIATYFCQQGDTFPRTFGGGTKVEIK | 2.67 nM | 0.00071 s⁻¹ | 266000 M⁻¹ s⁻¹
140Hm7/hz140L (Table 2) (antibody, V domains shown, also called hz140-Hm/hz140L) VH: QVQLVQSGAEVKKPGASVKVSCKASGYKFTNYVMHWVRQAPGQRLEWMGYINPYNDGIKYNEKFTGRVTITRDTSASTAYMELSSLRSEDTAVYYCAREGDFYANYGRLGFDYWGQGTLVTVSS VL: DIQMTQSPSSLSASVGDRVTITCRASQDITNYLNWYQQKPGKAPKLLIYYTSRLHSGVPSRFSGSGSGTDYTFTISSLQPEDIATYFCQQGDTFPRTFGGGTKVEIK | 61.4 nM | 0.0131 s⁻¹ | 213000 M⁻¹ s⁻¹
140Hm6/hz140L (Table 2) (antibody, V domains shown, also called hz140-Hm/hz140L) VH: QVQLVQSGAEVKKPGASVKVSCKASGYKFTNYVMHWVRQAPGQRLEWMGYINPYNDGIKYNEKFQGRVTITRDTSASTAYMELSSLRSEDTAVYYCAREGDFYANYGRLGFAYWGQGTLVTVSS VL: DIQMTQSPSSLSASVGDRVTITCRASQDITNYLNWYQQKPGKAPKLLIYYTSRLHSGVPSRFSGSGSGTDYTFTISSLQPEDIATYFCQQGDTFPRTFGGGTKVEIK | 22.6 nM | 0.00707 s⁻¹ | 313000 M⁻¹ s⁻¹
140Hm8/hz140L (Table 2) (antibody, V domains shown, also called hz140-Hm/hz140L) VH: QVQLVQSGAEVKKPGASVKVSCKASGYKFTNYVMHWVRQAPGQRLEWMGYINPYNDAIKYNEKFTGRVTITRDTSASTAYMELSSLRSEDTAVYYCAREGDFYANYGRLGFAYWGQGTLVTVSS VL: DIQMTQSPSSLSASVGDRVTITCRASQDITNYLNWYQQKPGKAPKLLIYYTSRLHSGVPSRFSGSGSGTDYTFTISSLQPEDIATYFCQQGDTFPRTFGGGTKVEIK | 3.87 nM | 0.00094 s⁻¹ | 243000 M⁻¹ s⁻¹
140Hm3/hz140L (Table 2) (antibody, V domains shown, also called hz140-Hm/hz140L) VH: QVQLVQSGAEVKKPGASVKVSCKASGYKFTNYVMSWVRQAPGQRLEWMGYINPYNDGIKYNEKFTGRVTITRDTSASTAYMELSSLRSEDTAVYYCAREGDFYANYGRLGFAYWGQGTLVTVSS VL: DIQMTQSPSSLSASVGDRVTITCRASQDITNYLNWYQQKPGKAPKLLIYYTSRLHSGVPSRFSGSGSGTDYTFTISSLQPEDIATYFCQQGDTFPRTFGGGTKVEIK | 5.12 nM | 0.00103 s⁻¹ | 201000 M⁻¹ s⁻¹
140Hm5/hz140L (Table 2) (antibody, V domains shown, also called hz140-Hm/hz140L) VH: QVQLVQSGAEVKKPGASVKVSCKASGYKFTNYVMHWVRQAPGQRLEWMGYINPGNDGIKYNEKFTGRVTITRDTSASTAYMELSSLRSEDTAVYYCAREGDFYANYGRLGFAYWGQGTLVTVSS VL: DIQMTQSPSSLSASVGDRVTITCRASQDITNYLNWYQQKPGKAPKLLIYYTSRLHSGVPSRFSGSGSGTDYTFTISSLQPEDIATYFCQQGDTFPRTFGGGTKVEIK | 20.8 nM | 0.00467 s⁻¹ | 224000 M⁻¹ s⁻¹
140Hm4/hz140L (Table 2) (antibody, V domains shown, also called hz140-Hm/hz140L) VH: QVQLVQSGAEVKKPGASVKVSCKASGYKFTNYVMHWVRQAPGQRLEWMGWINPYNDGIKYNEKFTGRVTITRDTSASTAYMELSSLRSEDTAVYYCAREGDFYANYGRLGFAYWGQGTLVTVSS VL: DIQMTQSPSSLSASVGDRVTITCRASQDITNYLNWYQQKPGKAPKLLIYYTSRLHSGVPSRFSGSGSGTDYTFTISSLQPEDIATYFCQQGDTFPRTFGGGTKVEIK | 6.17 nM | 0.00216 s⁻¹ | 350000 M⁻¹ s⁻¹

molecular target: T1, recombinant antigen of the …; experiment: Fortebio BLI, antibody on AHC sensor, CD47 extracellular region 100 nM;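 also: antibody held on the sensor through anti-human Fc capture, CD47 antigen in solution, association and dissociation phases each lasting 300 s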
Method: The affinity between the obtained mutant antibody and the CD47 recombinant protein was determined by Fortebio. The antibody was immobilized on the surface of a sensor with the anti-human Fc capture antibody (AHC Sensor), and reacted with the recombinant antigen of the extracellular region of CD47 (with a working concentration of 100 nM) in the liquid phase. The duration for binding and dissociation was both 300 seconds. The kinetic parameters were determined.

Binder | Kd | koff | kon
hz140-Hm12/hz182-L (antibody, V domains shown) VH: QVQLVQSGAEVKKPGASVKVSCKASGYTFTNYVMSWVRQAPGQRLEWMGYINPYNDAIKYNEKFTGRVTITRDTSASTAYMELSSLRSEDTAVYYCAREGDFYANYGRLGFAYWGQGTLVTVSS VL: DIQMTQSPSSLSASVGDRVTITCRASQDISNYLNWYQQKPGKAPKLLLYYTSRLHSGVPSRFSGSGSGTDYTLTISSLQPEDFATYFCQQGAGRPYTFGGGTKVEIK | 14.7 nM | 0.00328 s⁻¹ | 224000 M⁻¹ s⁻¹
hz140-Hm10/hz182-L (antibody, V domains shown) VH: QVQLVQSGAEVKKPGASVKVSCKASGYKFTNYVMHWVRQAPGQRLEWMGYINPYNEGIKYNEKFTGRVTITRDTSASTAYMELSSLRSEDTAVYYCAREGDFYANYGRLGFAYWGQGTLVTVSS VL: DIQMTQSPSSLSASVGDRVTITCRASQDISNYLNWYQQKPGKAPKLLLYYTSRLHSGVPSRFSGSGSGTDYTLTISSLQPEDFATYFCQQGAGRPYTFGGGTKVEIK | < 0.001 nM | < 1e-07 s⁻¹ | 206000 M⁻¹ s⁻¹
hz140-Hm4/hz182-L (antibody, V domains shown) VH: QVQLVQSGAEVKKPGASVKVSCKASGYKFTNYVMSWVRQAPGQRLEWMGYINPYNDGIKYNEKFTGRVTITRDTSASTAYMELSSLRSEDTAVYYCAREGDFYANYGRLGFAYWGQGTLVTVSS VL: DIQMTQSPSSLSASVGDRVTITCRASQDISNYLNWYQQKPGKAPKLLLYYTSRLHSGVPSRFSGSGSGTDYTLTISSLQPEDFATYFCQQGAGRPYTFGGGTKVEIK | 5.97 nM | 0.00171 s⁻¹ | 286000 M⁻¹ s⁻¹
hz140-Hm3/hz182-L (antibody, V domains shown) VH: QVQLVQSGAEVKKPGASVKVSCKASGYKFTNYAMHWVRQAPGQRLEWMGYINPYNDGIKYNEKFTGRVTITRDTSASTAYMELSSLRSEDTAVYYCAREGDFYANYGRLGFAYWGQGTLVTVSS VL: DIQMTQSPSSLSASVGDRVTITCRASQDISNYLNWYQQKPGKAPKLLLYYTSRLHSGVPSRFSGSGSGTDYTLTISSLQPEDFATYFCQQGAGRPYTFGGGTKVEIK | 10.3 nM | 0.00308 s⁻¹ | 299000 M⁻¹ s⁻¹
hz140-Hm11/hz182-L (antibody, V domains shown) VH: QVQLVQSGAEVKKPGASVKVSCKASGYKFTNYVMSWVRQAPGQRLEWMGYINPYNDAIKYNEKFTGRVTITRDTSASTAYMELSSLRSEDTAVYYCAREGDFYANYGRLGFAYWGQGTLVTVSS VL: DIQMTQSPSSLSASVGDRVTITCRASQDISNYLNWYQQKPGKAPKLLLYYTSRLHSGVPSRFSGSGSGTDYTLTISSLQPEDFATYFCQQGAGRPYTFGGGTKVEIK | 6.53 nM | 0.0017 s⁻¹ | 260000 M⁻¹ s⁻¹
hz140-Hm5/hz182-L (antibody, V domains shown) VH: QVQLVQSGAEVKKPGASVKVSCKASGYKFTNYVMHWVRQAPGQRLEWMGWINPYNDGIKYNEKFTGRVTITRDTSASTAYMELSSLRSEDTAVYYCAREGDFYANYGRLGFAYWGQGTLVTVSS VL: DIQMTQSPSSLSASVGDRVTITCRASQDISNYLNWYQQKPGKAPKLLLYYTSRLHSGVPSRFSGSGSGTDYTLTISSLQPEDFATYFCQQGAGRPYTFGGGTKVEIK | 6.82 nM | 0.00103 s⁻¹ | 151000 M⁻¹ s⁻¹
hz140-Hm1/hz182-L (antibody, V domains shown) VH: QVQLVQSGAEVKKPGASVKVSCKASGYTFTNYVMHWVRQAPGQRLEWMGYINPYNDGIKYNEKFTGRVTITRDTSASTAYMELSSLRSEDTAVYYCAREGDFYANYGRLGFAYWGQGTLVTVSS VL: DIQMTQSPSSLSASVGDRVTITCRASQDISNYLNWYQQKPGKAPKLLLYYTSRLHSGVPSRFSGSGSGTDYTLTISSLQPEDFATYFCQQGAGRPYTFGGGTKVEIK | 1.67 nM | 0.000542 s⁻¹ | 325000 M⁻¹ s⁻¹
hz140-Hm2/hz182-L (antibody, V domains shown) VH: QVQLVQSGAEVKKPGASVKVSCKASGYKFTSYVMHWVRQAPGQRLEWMGYINPYNDGIKYNEKFTGRVTITRDTSASTAYMELSSLRSEDTAVYYCAREGDFYANYGRLGFAYWGQGTLVTVSS VL: DIQMTQSPSSLSASVGDRVTITCRASQDISNYLNWYQQKPGKAPKLLLYYTSRLHSGVPSRFSGSGSGTDYTLTISSLQPEDFATYFCQQGAGRPYTFGGGTKVEIK | 1.71 nM | 0.000541 s⁻¹ | 317000 M⁻¹ s⁻¹
hz140-Hm9/hz182-L (antibody, V domains shown) VH: QVQLVQSGAEVKKPGASVKVSCKASGYKFTNYVMHWVRQAPGQRLEWMGYINPYNDAIKYNEKFTGRVTITRDTSASTAYMELSSLRSEDTAVYYCAREGDFYANYGRLGFAYWGQGTLVTVSS VL: DIQMTQSPSSLSASVGDRVTITCRASQDISNYLNWYQQKPGKAPKLLLYYTSRLHSGVPSRFSGSGSGTDYTLTISSLQPEDFATYFCQQGAGRPYTFGGGTKVEIK | < 0.001 nM | < 1e-07 s⁻¹ | 223000 M⁻¹ s⁻¹
hz140-Hm8/hz182-L (antibody, V domains shown) VH: QVQLVQSGAEVKKPGASVKVSCKASGYKFTNYVMHWVRQAPGQRLEWMGYINPYNDGIKYNEKFTGRVTITRDTSASTAYMELSSLRSEDTAVYYCAREGDFYANYGRLGFDYWGQGTLVTVSS VL: DIQMTQSPSSLSASVGDRVTITCRASQDISNYLNWYQQKPGKAPKLLLYYTSRLHSGVPSRFSGSGSGTDYTLTISSLQPEDFATYFCQQGAGRPYTFGGGTKVEIK | 42.5 nM | 0.00907 s⁻¹ | 213000 M⁻¹ s⁻¹
hz140-Hm6/hz182-L (antibody, V domains shown) VH: QVQLVQSGAEVKKPGASVKVSCKASGYKFTNYVMHWVRQAPGQRLEWMGYINPGNDGIKYNEKFTGRVTITRDTSASTAYMELSSLRSEDTAVYYCAREGDFYANYGRLGFAYWGQGTLVTVSS VL: DIQMTQSPSSLSASVGDRVTITCRASQDISNYLNWYQQKPGKAPKLLLYYTSRLHSGVPSRFSGSGSGTDYTLTISSLQPEDFATYFCQQGAGRPYTFGGGTKVEIK | 8.55 nM | 0.00316 s⁻¹ | 370000 M⁻¹ s⁻¹
hz140-Hm7/hz182-L (antibody, V domains shown) VH: QVQLVQSGAEVKKPGASVKVSCKASGYKFTNYVMHWVRQAPGQRLEWMGYINPYNDGIKYNEKFQGRVTITRDTSASTAYMELSSLRSEDTAVYYCAREGDFYANYGRLGFAYWGQGTLVTVSS VL: DIQMTQSPSSLSASVGDRVTITCRASQDISNYLNWYQQKPGKAPKLLLYYTSRLHSGVPSRFSGSGSGTDYTLTISSLQPEDFATYFCQQGAGRPYTFGGGTKVEIK | 61.8 nM | 0.00767 s⁻¹ | 124000 M⁻¹ s⁻¹
